T1: GST-TNCIII5 (human, UniProt P24821 983-1074)
T1 construct: tenascin C, fifth TNCIII domain, T983–A1074; source: E. coli BL21, purified (Ni-NTA agarose)
T1 sequence (looked up): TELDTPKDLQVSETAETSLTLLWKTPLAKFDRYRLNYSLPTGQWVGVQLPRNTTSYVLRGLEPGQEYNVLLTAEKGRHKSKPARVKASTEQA


What was measured:
[1] = biological target: Bone morphogenetic protein (BMP)-2 (human) (UniProt P12643); assay: ELISA; as a1 but with 4 µM heparin (40-fold excess over 100 nM TNCIII1-5) during the incubation with TNCIII1-5
neurotrophin-3 (human) = neurotrophin-3 (human) (UniProt P20783); assay: as above
[2] = biological target: Bone morphogenetic protein (BMP)-2 (human) (UniProt P12643); assay: ELISA; cross-competition: growth factor (50 nM) coated; 10 nM TNCIII1–5 with full length TNC (0, 0.2, 0.6, 1.9, 5.6, […], 50 nM) in PBST, 1 h RT; TNCIII1–5 detected with HRP-anti-HIS; relative to binding without TNC
FGF-2 (human) = FGF-2 (human) (UniProt P09038); assay: as above
[3] = biological target: TNCIII1–5 (first five fibronectin type III-like repeats of human tenascin C, with N-terminal transglutaminase substrate and C-terminal 6xHis tag) (UniProt P24821); assay: SPR; Biacore X100; about 450 RU TNCIII1–5 amine-coupled on Sensor Chip C1, BSA on the control channel; growth factors flowed in PBS with 0.1% BSA at 30 µl/min; Langmuir fit
GST-TNCIII5 = biological target: T1, GST-TNCIII5; assay: ELISA; GST-TNCIII domains (1 µM in PBS) coated, blocked with 2% BSA; 2 nM PDGF-BB, 1 h RT; detected with anti-PDGF-BB and HRP anti-mouse; conditions: both partners purified

Bone morphogenetic protein (BMP)-2 (human), sequence (P12643 283-396): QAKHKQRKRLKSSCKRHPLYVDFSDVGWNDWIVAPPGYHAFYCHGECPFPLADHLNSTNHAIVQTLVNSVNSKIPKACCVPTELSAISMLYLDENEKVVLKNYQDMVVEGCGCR
FGF-2 (human), sequence (P09038 143-288): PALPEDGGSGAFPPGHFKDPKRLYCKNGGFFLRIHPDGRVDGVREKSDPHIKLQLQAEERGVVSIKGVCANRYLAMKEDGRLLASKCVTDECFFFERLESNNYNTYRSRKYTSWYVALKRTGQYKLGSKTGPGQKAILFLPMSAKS

| Molecule | Kd [3] [nM] | koff [3] [s⁻¹] | kon [3] [M⁻¹ s⁻¹] | also measured |
| --- | --- | --- | --- | --- |
| TNCIII1–5 (first five fibronectin type III-like repeats of human tenascin C, with N-terminal transglutaminase substrate and C-terminal 6xHis tag) (from UniProt P24821 622-1074) (domain or fragment) | – | – | – | percent of the original binding retained with 4 µM heparin [1]: 66%; percent of the original binding retained with 4 µM heparin (neurotrophin-3 (human)): 57% |
| full-length native human tenascin C (from UniProt P24821 23-2201) (natural protein) | – | – | – | IC50 [2]: > 50 nM; percent inhibition of TNCIII1–5 binding at 50 nM TNC [2]: 34%; IC50 (FGF-2 (human)): 5.6 nM |
| TGF-β1 (ligand) | 20.3 | 0.000237 | 11700 | – |
| neurotrophin-3 (ligand) YAEHKSHRGEYSVCDSESLWVTDKSSAIDIRGHQVTVLGEIKTGNSPVKQYFYETRCKEARPVKNGCRGIDDKHWNSQCKTSQTYVRALTSENNKLVGWRWIRIDTSCVCALSRKIGRT | 21 | 0.00106 | 50700 | – |
| PDGF-BB (ligand, human, UniProt P01127 82-190, looked up, Two B chains by its name; source: bought: Gibco) SLGSLTIAEPAMIAECKTRTEVFEISRRLIDRTNANFLVWPPCVEVQRCSGCCNNRNVQCRPTQVQLRPVQVRKIEIVRKKPIFKKATVTLEDHLACKCETVAAARPVT | – | – | – | fold binding level against TNCIII4 (GST-TNCIII5): 4 fold |

From article PMC3630135, “Tenascin C Promiscuously Binds Growth Factors via Its Fifth Fibronectin Type III-Like Domain” (PLoS ONE, 2013)
